Reference: the supplement of paper PMC9732359
± gives the uncertainty stated by the source.

Assay: protein stability index of a GFP-peptide fusion (yeast GPS) (PSI 1-4); higher = more stable; sorted into four equal gates, so the index is relative within each strain
Summary of the method: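 The protein stability index combines read frequencies across sorting gates, each weighted by its gate number and then summed. To obtain those frequencies, a pooled yeast library of GFP fusions to tiled 17-residue yeast protein peptides, on a plasmid also expressing Cherry, was grown to mid-log phase in leucine-free medium. The cells were sorted into four equal gates by GFP/Cherry ratio before plasmid amplification by PCR and Illumina sequencing.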

Sequence	protein stability index (doa10∆)	protein stability index (pdr5∆)	protein stability index (san1∆)	protein stability index (ubr1∆)
ICEDPETAKKITFHPKI [SMC2]	2.84 ± 0.1	2.74 ± 0.084	2.16 ± 0.28	2.9 ± 0.077
DLIRSESMLHLSIWIKN [IRR1]	1.62 ± 0.057	2.01 ± 0.05	1.51 ± 0.098	1.8 ± 0.04
LFEIVSNADTNQNSDMK [SRB8]	2.51 ± 0.29	2.87 ± 0.29	2.85 ± 0.16	
EQVKDDGTSTEKTFLHL [RPN8]	3.28 ± 0.12	3.66 ± 0.13	3.42 ± 0.05	3.46 ± 0.082
YTFKTSMRVKPSASLKL [YMR129W/POM152]	2.42 ± 0.16	2.6 ± 0.11	2.31 ± 0.14	2.8 ± 0.097
RAGVTIPSIPNPIANHT [SNF5]	2.46 ± 0.05	2.61 ± 0.039	2.43 ± 0.041	2.64 ± 0.031
GDIVLTRVTRLSLQRAN [CSL4]	2.14 ± 0.098	1.41 ± 0.093	1.59 ± 0.16	1.32 ± 0.12
SGGSRNTSESLLVDIQK [SMC2]	2.59 ± 0.14	2.22 ± 0.16	2.33 ± 0.12	1.73 ± 0.13
KIKAILESVGIEIEDEK [RPP2A]	2.75 ± 0.084	3.3 ± 0.11	2.8 ± 0.11	2.99 ± 0.13
NKLSSILQNEHDYWNKI [SRB4]	2.37 ± 0.069	2.41 ± 0.05	2.25 ± 0.099	2.47 ± 0.043
ASDGGLYVPHSENRFPG [RPL5]	2.19 ± 0.1	2.61 ± 0.079	2.93 ± 0.095	2.92 ± 0.057
SIGYETELKKITDKTIK [IRR1]	3.06 ± 0.07	3.12 ± 0.066	2.99 ± 0.062	3 ± 0.082
DQFIRHVLRGVESPDKN [YCG1]		3.77 ± 0.2	3.18 ± 0.14	
GNQRKILQYSRTWYESF [YJR042W/NUP85]	2.36 ± 0.099	2.79 ± 0.1	2.28 ± 0.17	2.21 ± 0.21
VGVGKLNKLYGGAKSRG [RPS19A]	3.29 ± 0.066	3.39 ± 0.1	3.2 ± 0.047	3.58 ± 0.11
WNWAKQSLLSLYFEIIH [FAS2]	1.7 ± 0.06	1.46 ± 0.057	1.76 ± 0.15	1.4 ± 0.072
QQQRRQLTPQQQQLVNQ [GAL11]	2.72 ± 0.049	3 ± 0.05	2.8 ± 0.038	3 ± 0.049
SSAHLIRINDEPILGQI [YML103C/NUP188]	2.59 ± 0.084	2.9 ± 0.077	2 ± 0.14	2.45 ± 0.069
FKATHILDFGPGGASGL [FAS1]	2.75 ± 0.08	3.43 ± 0.14		2.96 ± 0.21
NFIEPGINQILGNEKNQ [CDC53]				2.75 ± 0.2
GGQGNTDDYFEELRDLY [FAS1]	3.22 ± 0.088	3.51 ± 0.073	3.3 ± 0.057	3.28 ± 0.059
LEQVEFEKNTILQQRSK [MED4]	2.94 ± 0.22	3.44 ± 0.13	2.77 ± 0.11	3.27 ± 0.1
FANYKLLLKKIIKDYVL [SRB4]	2.41 ± 0.069	2.24 ± 0.068	1.97 ± 0.09	1.86 ± 0.035
ERVRNFAVIYLCDIDEV [DIB1]	1.26 ± 0.13	1.22 ± 0.093	1.04 ± 0.26	1.36 ± 0.088
TTNNNNTNNNNTNNNNN [SWI1]	3.39 ± 0.087	3.5 ± 0.082	3.43 ± 0.06	3.42 ± 0.079
GRRKTWKRQNTLSLWRY [RPL15A]	3.21 ± 0.1	3.11 ± 0.11	2.57 ± 0.085	3.37 ± 0.057

Sequence	protein stability index (doa10∆)	protein stability index (pdr5∆)	protein stability index (san1∆)	protein stability index (ubr1∆)
ENDIIKLSDSKTSNIES [BRR2]		2.48 ± 0.18	2.77 ± 0.19	3.09 ± 0.15
ELFDILSTSEDVSIEEL [IRR1]	2.66 ± 0.17	2.15 ± 0.2	2.6 ± 0.21	2 ± 0.13
KEKLIGWYHSGPKLRAS [RPN8]	2.16 ± 0.055	2.41 ± 0.045	2.53 ± 0.051	2.63 ± 0.042
NDNNLKKLESQESLVKL [RPN5]	3.01 ± 0.071	2.96 ± 0.064	2.76 ± 0.06	2.97 ± 0.071
DDRGPVLESIVARTFWA [BRR2]	2.67 ± 0.09	2.07 ± 0.057	2.9 ± 0.11	2.85 ± 0.077
IEQEKQEQQEQDKKKKS [PRE6]	2.17 ± 0.069	1.82 ± 0.06	2.59 ± 0.077	1.59 ± 0.049
KDKFNQIPLHRAASVGS [NAS6]	1.81 ± 0.074	2.13 ± 0.079	2.05 ± 0.15	2.26 ± 0.082
VKTSPDAKKCIAACTGV [FAS1]	2.41 ± 0.12	3.02 ± 0.16	3.01 ± 0.24	2.48 ± 0.08
EPIKLEPVKEYTFKTSM [YMR129W/POM152]	2.22 ± 0.098	2.29 ± 0.08	1.99 ± 0.17	
VLNCLRTMYFILDGQDV [YJR042W/NUP85]	1.87 ± 0.083	1.42 ± 0.091	1.31 ± 0.1	1.34 ± 0.078
LMRQGVLGIKVKIMRDP [RPS3]	2.4 ± 0.085	2.33 ± 0.074	2.25 ± 0.083	2.74 ± 0.051
TRIFQALPRKLRRRTAS [POP1]	2.33 ± 0.07	3.23 ± 0.11	2.68 ± 0.14	2.73 ± 0.074
TIHAKRKIVFRCSECIK [RPN4]	2.39 ± 0.056	2.73 ± 0.066	2.15 ± 0.11	2.59 ± 0.056
VLESHWKQDLTKEEAIK [PUP1]	2.71 ± 0.18	3.15 ± 0.13	3.32 ± 0.12	3.08 ± 0.15
KSSLSLRDHALSLTAFT [ITC1]	1.63 ± 0.036	2.14 ± 0.036	1.64 ± 0.064	2.16 ± 0.036
IVKVFHGAFMDIIWLQR [RRP6]	2.1 ± 0.056	1.53 ± 0.047	1.32 ± 0.073	1.18 ± 0.033
VKSLVDNMITGVTKGYK [RPL9A]	2.75 ± 0.081	3.31 ± 0.14	2.92 ± 0.25	3.11 ± 0.073
FVSSLSNTSTLKNMLYV [BRR2]	1.88 ± 0.058	2.08 ± 0.049	1.85 ± 0.064	2.18 ± 0.036
RDKAGRLAEVNLKDLNN [RPO21]	3.15 ± 0.11	2.75 ± 0.083	2.55 ± 0.086	2.79 ± 0.11
TAKETKMLMNLHKEQWQ [RPN11]	3.28 ± 0.097	3.36 ± 0.082	3.5 ± 0.036	3.42 ± 0.068
LIESGIGTHHAGLTRSD [BRR2]	3.31 ± 0.095	3.5 ± 0.13	2.82 ± 0.1	3.43 ± 0.062
IYSRDIGAELKREESES [SNF2]	3.06 ± 0.087	3.19 ± 0.086	3.08 ± 0.066	3.01 ± 0.071
SSFNFNKNLPFVWLSSE [SWI1]	3.05 ± 0.046	2.32 ± 0.057	1.84 ± 0.053	2.4 ± 0.033
QQQQQQNNSTGSSSIIY [SSN2]	2.65 ± 0.07	2.99 ± 0.062	2.69 ± 0.091	2.79 ± 0.065
IDEDKLYPSFKPIYKDT [SSN2]	2.99 ± 0.095	3.04 ± 0.11	3 ± 0.053	3.17 ± 0.092
KDLKDDSIYTKPVKVAL [YJL039C/NUP192]	2.81 ± 0.049	2.98 ± 0.045	2.73 ± 0.053	3.02 ± 0.04
